Holding throughout (settings): both partners purified
For test [1], the target named is T1, Nanobody-161 IgG1 R29A.
T1 construct: as the chain of m1 with the stated change
In words: BLI; Gator system, 25 °C; 30 nM Nanobody-161 IgG1 or mutant immobilised on Protein A biosensors for 120 s; 4800 nM-300 nM TNFR2-His in Q Buffer (PBS, 0.02% Tween 20, 0.2% BSA); association 120 s, dissociation 180 s; global 1:1 Langmuir fit. A general note: In BLI a coated tip is dipped into the sample, and binding shifts an interference pattern.

The target of test [2] is T2, Nanobody-161 IgG1 R53A.
T2 construct: as the chain of m1 with the stated change
The test is described as above.

The target in test [3] is T3, Nanobody-161 IgG1 Q102A.
T3 construct: as the chain of m1 with the stated change
The test is described as above.

Test [4] addresses T4, Nanobody-161 IgG1.
T4 construct: CDR1 26-35, CDR2 50-59, CDR3 99-110); 78 kDa, called bivalent in the discussion; The methods nonetheless speak of heavy-chain and light-chain plasmids; source: ExpiCHO, transfected, purified from conditioned medium (MabSelect SuRe LX)
Described as above.

Test [5] concerns the target T5, Nanobody-161 IgG1 F107G.
T5 construct: as the chain of m1 with the stated change
Described as above.

For test [6], the target named is T6, Nanobody-161 IgG1 R108A.
T6 construct: as the chain of m1 with the stated change
Described as above.

The target of test [7] is T7, TNFR2-His protein (Homo sapiens, UniProt P20333).
T7 construct: Tumor necrosis factor receptor 2 (TNFR2), human; The BLI methods say only 'TNFR2-His protein'; It may be the E. coli ectodomain (residues 33-205, purified on a nickel column) or a bought protein (Sino Biological 10417-H03H); neither the source nor the species is named for this experiment; also called histidine-tagged TNFR2
In words: BLI; 30 nM Nanobody-161 IgG1 or mutant immobilised on Protein A biosensors (Gator); 4800 nM-300 nM TNFR2-His in Q Buffer (PBS, 0.02% Tween 20, 0.2% BSA); 25 °C; association 120 s, dissociation 180 s; global 1:1 Langmuir fit.

Positions count from the first letter of the chain named.

T7 sequence (P20333 23-461): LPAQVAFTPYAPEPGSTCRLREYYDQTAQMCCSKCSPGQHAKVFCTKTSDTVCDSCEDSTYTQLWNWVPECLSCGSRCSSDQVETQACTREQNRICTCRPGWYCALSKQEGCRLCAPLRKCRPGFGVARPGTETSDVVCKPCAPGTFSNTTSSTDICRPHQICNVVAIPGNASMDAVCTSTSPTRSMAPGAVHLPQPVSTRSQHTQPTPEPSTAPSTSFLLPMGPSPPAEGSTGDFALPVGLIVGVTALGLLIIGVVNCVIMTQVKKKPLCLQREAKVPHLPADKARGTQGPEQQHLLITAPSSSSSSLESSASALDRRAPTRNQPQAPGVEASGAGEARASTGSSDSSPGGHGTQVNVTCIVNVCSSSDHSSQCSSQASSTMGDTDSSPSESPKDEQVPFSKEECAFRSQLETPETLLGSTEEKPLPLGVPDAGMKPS

B1: TNFR2-His protein (receptor, UniProt P20333 23-461, looked up)
chain: APEPGSTCRLREYYDQTAQMCCSKCSPGQHAKVFCTKTSDTVCDSCEDSTYTQLWNWVPECLSCGSRCSSDQVETQACTREQNRICTCRPGWYCALSKQEGCRLCAPLRKCRPGFGVARPGTETSDVVCKPCAPGTFSNTTSSTDICRPHQICNVVAIPGNASMDAVCTSTSP
notes: TNFR2-His protein used as analyte in BLI; also called histidine-tagged TNFR2
With B1, the binding result in test [1], in test [2], in test [3], in test [4], in test [5] and in test [6] was “binds” in each case.

B2: Nanobody-161 IgG1 (VHH)
VHH: EVQLVESGGGLVQPGGSLRLSCAASGSIRFINDMGWYRQAPGKGLELVAAIGRGGGSTNYADSVKGRFTISRDNAKNTLYLQMNSLRAEDTAVYYCHAEISQLGYAFRDYWGQGTLVTVSS
notes: also called WT; source: ExpiCHO, purified (MabSelect SuRe LX)
By Kd is commonly meant a measure of binding affinity in units of concentration. Read a low Kd as a tighter complex. The term koff denotes the rate constant with which the complex falls apart. Usually kon stands for the rate constant with which the complex forms. Low readings indicate slow association, high ones fast association. In test [7], B2 displayed a Kd of 81.5 nM, a koff of 0.000276 s⁻¹ and a kon of 3390 M⁻¹ s⁻¹.

B3: Nanobody-161 IgG1 Q102A (VHH)
VHH: B2 VHH with Q102A
notes: as the VHH of Wm1, with the stated change
Turning to B3, in test [7], binding was put at a Kd of 212 nM, the koff came to 0.000699 s⁻¹ and the kon was determined as 3290 M⁻¹ s⁻¹.

B4: Nanobody-161 IgG1 L103G (VHH)
VHH: B2 VHH with L103G
notes: as for B3
For the molecule B4, in test [7], the Kd turned out to be 976 nM, the off-rate constant (koff) came to 0.00382 s⁻¹ and the kon was 3920 M⁻¹ s⁻¹.

B5: Nanobody-161 IgG1 R29A (VHH)
VHH: B2 VHH with R29A
notes: as for B3
In test [7], B5 registered a Kd of 631 nM, a koff of 0.002 s⁻¹ and a kon of 3170 M⁻¹ s⁻¹.

B6: Nanobody-161 IgG1 R108A (VHH)
VHH: B2 VHH with R108A
notes: as for B3
In test [7], B6 displayed a Kd of 186 nM, a koff of 0.000877 s⁻¹ and a kon of 4730 M⁻¹ s⁻¹.

B7: Nanobody-161 IgG1 R53A (VHH)
VHH: B2 VHH with R53A
notes: as for B3
In test [7], B7 came in with a Kd of 79.5 nM, a koff of 0.000321 s⁻¹ and a kon of 4030 M⁻¹ s⁻¹.

B8: Nanobody-161 IgG1 F30G (VHH)
VHH: B2 VHH with F30G
notes: as for B3
In test [7], B8 displayed a Kd of 3780 nM, a koff of 0.0126 s⁻¹ and a kon of 3340 M⁻¹ s⁻¹.

B9: Nanobody-161 IgG1 S101A (VHH)
VHH: B2 VHH with S101A
notes: as for B3
Regarding B9, in test [7], binding was characterised by a dissociation constant (Kd) of 1720 nM, the koff worked out at 0.00926 s⁻¹ and the kon was determined as 5370 M⁻¹ s⁻¹.
